According to FireProtDB (doi:10.1006/jmbi.1995.0599):

B1: Lysozyme C, P61626 (parent)
chain: MKALIVLGLVLLSVTVQGKVFERCELARTLKRLGMDGYRGISLANWMCLAKWESGYNTRATNYNAGDRSTDYGIFQINSRYWCNDGKTPGAVNACHLSCSALLQDNIADAVACAKRVVRDPQGIRAWVAWRNRCQNRDVRQYVQGCGV

Variants of: B1
Settings: Homo sapiens, pH 2.7, Thermal, DSC, glycine 0.05 M, reversible: yes, structure 1LZ1, whole UniProt chain shown

Row | Variant | ddG of mutation (higher = less stable) (64.9 °C) | heat capacity change of unfolding (64.9 °C) | Tm | change of melting temperature, mutant - wild type (higher = more stable) | heat capacity change of unfolding | unfolding enthalpy (calorimetric) | unfolding enthalpy (van 't Hoff)
1 | MKALIVLGLVLLSVTVQGKVFERCELARTLKRLGMDGYRGISLANWMCLAKWESGYNTRATNYNAGDRSTDYGIFQINSRYWCNDGKTPGAVNACHLSCSALLQDNVADAVACAKRVVRDPQGIRAWVAWRNRCQNRDVRQYVQGCGV [I107V] | 0.48 kcal/mol | 1.91 kcal/mol/K | 63.5 °C | -1.4 °C | 1.91 kcal/mol/K | 116 kcal/mol | 122 kcal/mol
2 | MKALIVLGLVLLSVTVQGKVFERCELARTLKRLGMDGYRGVSLANWMCLAKWESGYNTRATNYNAGDRSTDYGIFQINSRYWCNDGKTPGAVNACHLSCSALLQDNIADAVACAKRVVRDPQGIRAWVAWRNRCQNRDVRQYVQGCGV [I41V] | 0.36 kcal/mol | 1.39 kcal/mol/K | 63.8 °C | -1.1 °C | 1.39 kcal/mol/K | 112 kcal/mol | 120 kcal/mol
3 | MKALIVLGLVLLSVTVQGKVFERCELARTLKRLGMDGYRGISLANWMCLAKWESGYNTRATNYNAGDRSTDYGIFQINSRYWCNDGKTPGAVNACHLSCSALLQDNIADAVACAKRVVRDPQGVRAWVAWRNRCQNRDVRQYVQGCGV [I124V] | 0.72 kcal/mol | 1.41 kcal/mol/K | 62.7 °C | -2.2 °C | 1.41 kcal/mol/K | 109 kcal/mol | 114 kcal/mol
4 | MKALIVLGLVLLSVTVQGKVFERCELARTLKRLGMDGYRGISLANWMCLAKWESGYNTRATNYNAGDRSTDYGVFQINSRYWCNDGKTPGAVNACHLSCSALLQDNIADAVACAKRVVRDPQGIRAWVAWRNRCQNRDVRQYVQGCGV [I74V] | 1.2 kcal/mol | 1.34 kcal/mol/K | 61.3 °C | -3.6 °C | 1.34 kcal/mol/K | 114 kcal/mol | 117 kcal/mol
5 | MKALIVLGLVLLSVTVQGKVFERCELARTLKRLGMDGYRGISLANWMCLAKWESGYNTRATNYNAGDRSTDYGIFQVNSRYWCNDGKTPGAVNACHLSCSALLQDNIADAVACAKRVVRDPQGIRAWVAWRNRCQNRDVRQYVQGCGV [I77V] | – | – | 61.5 °C | -3.4 °C | 1.2 kcal/mol/K | 110 kcal/mol | 117 kcal/mol
